What was measured:
[1] = target: Mouse MMP-9 (R&D, 909-MM), APMA-activated (mouse, UniProt P41245 108-730, limits assumed); assay: enzyme inhibition with fluorogenic peptide substrate Mca-KPLGL-Dap(Dnp)-AR-NH2; Ki from IC50 vs substrate concentration, 30 C
Description: (§1) Materials: [0424] Substrate: Mca-KPLGL-Dap(Dnp)-AR-NH₂ (M-2350) from BACHEM (521575). A 10 mM stock solution was prepared in DMSO. [0425] Enzymes: [0426] Human MMP-9 catalytic domain (BIOMOL, SE-244). Enzyme concentration was measured by titration with TIMP-1 (2522-104) [0427] Mouse MMP-9 (R&D, 909-MM), APMA-activated. [0428] M0237-D02 hIgG1: 2517-014. Dialysed against TCN. [0429] TCNB: 50 mM Tris/HCl, 10 mM CaCl₂, 150 mM NaC, […] Brij 35, pH 7.5. [0430] 96-well black plates from Perkin Elmer (6005270) [0431] Spectramax M2e to measure fluorescence emission of the substrate upon hydrolysis (temperature control set at 30° C.; λexc=328 nm and λₑₘ=393 nm)
(§2) The enzyme (final concentration=0.23 and 0.17 nM for the human and mouse MMP-9, respectively) was preincubated with various concentrations (0-50 nM) of M0237-D02 for 1 h at 30° C. The substrate was then added to a final concentration ranging from 5 to 40 μM and initial rates were recorded.

[2] = target: T1, active human MMP-9 catalytic domain (BIOMOL, SE-244) (human, UniProt P14780 107-444, limits assumed); assay: as above
T1 construct: domain: catalytic domain; also called Cat-huMMP-9; cat-huMMP-9
T1 sequence (P14780 107-444 limits assumed): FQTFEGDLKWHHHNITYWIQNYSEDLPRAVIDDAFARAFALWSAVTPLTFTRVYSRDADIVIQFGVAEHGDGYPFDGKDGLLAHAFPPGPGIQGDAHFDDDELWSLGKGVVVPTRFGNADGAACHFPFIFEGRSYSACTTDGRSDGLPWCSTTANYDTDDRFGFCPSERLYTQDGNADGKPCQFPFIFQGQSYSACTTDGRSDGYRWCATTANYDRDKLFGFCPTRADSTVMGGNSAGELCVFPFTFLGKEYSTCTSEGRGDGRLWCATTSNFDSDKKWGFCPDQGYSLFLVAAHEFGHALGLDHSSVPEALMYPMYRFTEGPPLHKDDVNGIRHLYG
Description: as §1, §2

[3] = target: T1, active human MMP-9 catalytic domain …; assay: plot of kobs vs antibody concentration from inhibition progress curves, 25 C
Description: Materials: [0447] Substrate: Mca-KPLGL-Dap(Dnp)-AR-NH₂ (M-2350) from BACHEM (521575). A 10 mM stock solution was prepared in DMSO. [0448] Human MMP-9 catalytic domain (BIOMOL, SE-244). [0449] M0237-D02 hIgG1: 2517-068. [0450] All measurements were performed at 25° C. in TCNB: 50 mM Tris/HCl, 10 mM CaCl₂, 150 mM NaCl 0.05% Brij 35, pH 7.5. [0451] 96-well black plates from Perkin Elmer (6005270) [0452] Spectramax M2e to measure fluorescence emission of the substrate upon hydrolysis (λexc=328 nm and λₑₘ=393 nm)
The enzyme (at a final concentration ranging from 1.5 to 12.3 nM), the substrate (9 μM final) and the M0237-D02 antibody were mixed, and the fluorescence was immediately recorded in order to follow the hydrolysis of the substrate. The observed inhibition rate (kobs) was obtained by analyzing the progress curves with a single exponential. The value for kₒₙ and koff were calculated from the plot of the kobs vs. the antibody concentration using the following equation: […]

h-MMP-9/h-TIMP-1 complex = target: T2, h-MMP-9/h-TIMP-1 complex (human, UniProt P14780 107-444; P01033 24-207, limits assumed); assay: SPR Biacore 3000, antibody amine-coupled to CM5 chip (direct capture)
T2 construct: also called huTIMP-1/cat-huMMP-9; MMP-9/TIMP-1 complex
T2 sequence (P14780 107-444 limits assumed, chain 1 of 2): as the sequence (P14780 107-444 limits assumed) above
T2 sequence (P01033 24-207 limits assumed, chain 2 of 2): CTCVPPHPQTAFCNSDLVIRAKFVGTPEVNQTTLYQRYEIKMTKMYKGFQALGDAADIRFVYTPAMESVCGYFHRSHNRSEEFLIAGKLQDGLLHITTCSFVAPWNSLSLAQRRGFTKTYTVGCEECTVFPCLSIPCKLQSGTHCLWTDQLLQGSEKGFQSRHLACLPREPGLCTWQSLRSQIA
Description: (§3) Experiments were performed at 25° C. with the help of a Biacore 3000 instrument. The MMP-9 binding protein (M0166F10) and the M0237-D02 antibody were coated to a CM5 chip either via standard amine coupling or using an anti-Fc antibody surface. Then either the active, human MMP-9 catalytic domain (BIOMOL, SE-244), the human pro-MMP-9 (R&D, 911-MP), the human TIMP-1 (R&D, 970-TM) or a h-MMP-9/h-TIMP-1 complex were flowed over the antibody surfaces, and binding was recorded.
(§4) It was shown that the human MMP-9 catalytic domain binds to M0166-F10, whether this antibody is directly captured via amine coupling or captured with an anti-Fc antibody surface.

[4] = target: T3, human pro-MMP-9 (R&D, 911-MP) (human, UniProt P14780 20-707); assay: as above
T3 construct: Zymogen form; also called Pro-huMMP-9
T3 sequence (P14780 20-707): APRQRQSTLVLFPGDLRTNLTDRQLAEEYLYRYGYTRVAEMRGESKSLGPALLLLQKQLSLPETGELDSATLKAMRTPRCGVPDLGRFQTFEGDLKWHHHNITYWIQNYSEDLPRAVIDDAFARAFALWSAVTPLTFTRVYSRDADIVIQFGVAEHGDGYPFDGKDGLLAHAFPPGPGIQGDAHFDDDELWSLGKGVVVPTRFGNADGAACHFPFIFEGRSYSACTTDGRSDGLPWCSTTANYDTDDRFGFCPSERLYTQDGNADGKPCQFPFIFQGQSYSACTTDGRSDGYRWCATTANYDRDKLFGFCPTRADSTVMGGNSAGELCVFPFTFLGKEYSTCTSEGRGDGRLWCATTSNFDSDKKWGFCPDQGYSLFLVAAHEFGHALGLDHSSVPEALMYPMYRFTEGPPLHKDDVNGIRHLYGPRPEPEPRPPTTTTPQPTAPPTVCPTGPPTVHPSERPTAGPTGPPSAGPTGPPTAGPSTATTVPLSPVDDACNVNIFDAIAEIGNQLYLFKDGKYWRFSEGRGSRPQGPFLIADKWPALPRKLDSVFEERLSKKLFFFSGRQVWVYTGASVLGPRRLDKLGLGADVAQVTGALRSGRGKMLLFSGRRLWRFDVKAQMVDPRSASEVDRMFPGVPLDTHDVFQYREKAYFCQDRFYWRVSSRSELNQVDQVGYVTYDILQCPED
Description: as §3, §4

[5] = target: T4, human TIMP-1 (R&D, 970-TM) (human, UniProt P01033 24-207); assay: as above
T4 construct: also called huTIMP-1; h-TIMP-1
T4 sequence (P01033 24-207 limits assumed): as the sequence (P01033 24-207 limits assumed, chain 2 of 2) above
Description: as §3, §4

Mouse MMP-9 (R&D, 909-MM), APMA-activated, sequence (P41245 108-730 limits assumed): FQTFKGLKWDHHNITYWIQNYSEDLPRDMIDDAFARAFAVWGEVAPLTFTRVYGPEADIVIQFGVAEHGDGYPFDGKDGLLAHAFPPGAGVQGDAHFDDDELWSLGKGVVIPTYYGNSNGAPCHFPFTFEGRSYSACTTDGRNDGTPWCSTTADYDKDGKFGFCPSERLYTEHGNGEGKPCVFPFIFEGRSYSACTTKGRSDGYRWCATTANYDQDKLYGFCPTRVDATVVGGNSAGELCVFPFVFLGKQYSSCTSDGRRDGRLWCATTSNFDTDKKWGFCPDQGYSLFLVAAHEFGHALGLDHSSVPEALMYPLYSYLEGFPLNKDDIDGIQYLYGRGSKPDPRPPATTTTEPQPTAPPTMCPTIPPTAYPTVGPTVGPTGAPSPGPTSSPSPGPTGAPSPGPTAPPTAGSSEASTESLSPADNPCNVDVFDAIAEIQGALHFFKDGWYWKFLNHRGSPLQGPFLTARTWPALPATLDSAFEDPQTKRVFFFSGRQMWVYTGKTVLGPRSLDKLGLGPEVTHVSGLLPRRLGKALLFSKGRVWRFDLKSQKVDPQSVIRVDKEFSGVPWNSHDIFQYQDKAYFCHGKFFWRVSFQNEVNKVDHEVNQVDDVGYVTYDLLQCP

Ki [1]	Ki [2]	koff [3]	kon [3]	binding result (h-MMP-9/h-TIMP-1 complex)	binding result [4]	binding result [5]	Binder
1.3 nM	0.92 nM	~0.0004 s⁻¹	~70000 M⁻¹ s⁻¹	no binding			539A-M0237-D02 hIgG1 (antibody, V domains shown, Tested as hIgG1; also called M237-D02; DL8) VH: EVQLLESGGGLVQPGGSLRLSCAASGFTFSQYPMWWVRQAPGKGLEWVSYIVPSGGRTYYADSVKGRFTISRDNSKNTLYLQMNSLRAEDTAVYYCAKDRAYGDYVGWNGFDYWGQGTLVTVSS VL: DIQMTQSPATLSLSPGERATLSCRASQSISSFLAWYQQKPGQAPRLLIYDASYRATGIPARFSGSGSGTDFTLTISSLEPEDYAVYYCQQRGNWPITFGQGTRLEIKR
				no binding	no binding	no binding	539A-M0166-F10 (antibody, V domains shown, also called DL15) VH: EVQLLESGGGLVQPGGSLRLSCAASGFTFSPYLMNWVRQAPGKGLEWVSSIYSSGGGTGYADSVKGRFTISRDNSKNTLYLQMNSLRAEDTAVYYCARIYHSSSGPFYGMDVWGQGTTVTVSS VL: QSELTQPPSASAAPGQRVTISCSGSSSNIGSNTVTWYQKLPGTAPKLLIYNNYERPSGVPARFSGSKSGTSASLAISGLQSEDEADYYCATWDDSLIANYVFGSGTKVTVLG
